Data on ten compounds can be found in patent publication US20110076298A1, “Soluble stabilized trimeric hiv env proteins and uses thereof” (priority 2006, published 2011).

Where two headings read alike, the source gives them in different places.

The test system of data set [1] is HIV-1KNH1144 Env-pseudotyped virus. Put plainly: Env-pseudotyped HIV-1 neutralization assay, KNH1144 Env. It is filed as cell-based. As to conditions: CCR5 inhibitors and RT inhibitor, read-out: Env-pseudotyped neutralization (50% endpoint) KNH1144. The procedure:
(§1) FIGS. 4A-AF: Inhibition of infection by HIV-1JR-FL (filled circles) or HIV-1KNH1144 (open circles) Env-pseudotyped viruses by MAbs and fusion inhibitors. The viruses were incubated with the indicated concentrations of the inhibitors for 1 h prior to addition to U87.CD4.CCR5 cells. The luciferase content of cell lysates was determined after 3-4 days.
(§2) The generation and quantification of Env-pseudotyped HIV-1 viruses and their subsequent use in neutralization assays have been described previously.^45,65. U87.CD4.CCR5 target cells were used because the input pseudoviruses had the R5 phenotype. The amount of input pseudovirus was normalized by infectivity (virus titer). Virus infection was measured by determining luciferase expression in relative light units (RLU) in target cell lysates, according to the manufacturer's instructions (Promega, Madison, Wis.).
(§3) To assess the neutralization sensitivity of viruses bearing subtype A Env proteins, cytoplasmic tail-truncated gp140s from KER2008, KNH1144, KNH1207 and KNH1211 were co-expressed in trans with the pNL4/3.Luc plasmid to form single cycle, replication-incompetent pseudoviruses^72. Pseudovirions bearing the full-length Env protein from HIV-1JR-FL were also studied, for comparison.

The subject of data set [2] is HIV-1JR-FL Env-pseudotyped virus. In words: Env-pseudotyped HIV-1 neutralization assay, JR-FL Env. Type of data set: cell-based. As to conditions: CCR5 inhibitors and RT inhibitor, read-out: Env-pseudotyped neutralization (50% endpoint) JR-FL. How it is done: as §1, §2, §3
Data set [3] deals with HIV-1KNH1144 Env on Env-pseudotyped virus (HIV-1 KNH1144, subtype A). Put plainly: cell-based or functional assay.
The target in data set [4] is HIV-1KER2008 Env on Env-pseudotyped virus (HIV-1 KER2008, subtype A). In words: cell-based or functional assay.
Data set [5] addresses HIV-1KNH1211 Env on Env-pseudotyped virus (HIV-1 KNH1211, subtype A). In words: cell-based or functional assay.
Data set [6] deals with HIV-1KNH1207 Env on Env-pseudotyped virus (HIV-1 KNH1207, subtype A). Put plainly: cell-based or functional assay.
Data set [7] deals with gp120JR-FL (monomeric, subtype B) (HIV-1 JR-FL, subtype B). Put plainly: ELISA on D7324-captured gp120, half-maximal binding. A general note: An ELISA detects its analyte on a solid surface through an enzyme-linked reagent.
For data set [8], the target named is KNH1144 gp120 (monomeric, subtype A) (HIV-1 KNH1144, subtype A). Described as above.
For data set [9], the target named is KNH1207 gp120 (monomeric, subtype A) (HIV-1 KNH1207, subtype A). The data set is described as above.
Data set [10] has as its target gp120BaL (subtype B) (HIV-1 BaL, subtype B). The data set is described as above.
The target in data set [11] is Q23-17 gp120 (monomeric, subtype A) (HIV-1 Q23-17, subtype A). The data set is described as above.
The target of data set [12] is KNH1211 gp120 (monomeric, subtype A) (HIV-1 KNH1211, subtype A). The description is as above.
Data set [13] concerns the target KER2008 gp120 (monomeric, subtype A) (HIV-1 KER2008, subtype A). The description is as above.
Data set [14] concerns the target gp120DU151 (subtype C) (HIV-1 DU151, subtype C). The description is as above.
The target of data set [15] is BB359 gp120 (monomeric, subtype A) (HIV-1 BB359, subtype A). Described as above.
The nature of data set [16]: Detergent collapse effect on 5768.4 SOSIP R6 gp140 preparation, BN-PAGE. It is filed as physicochemical. As to conditions: 1 hour, room temperature. How it is done:
FIG. 15: Detergent “collapse” effect on subtype B 5768.4 HMW aggregate. 0.24 ug of purified subtype B 5768.4 SOSIP R6 gp140 trimer was incubated with 0.05 or 0.1% Tween 20. In addition, similar incubations were performed with NP40, Triton X-100, and SDS (at a final concentration of 0.1%) or the trimer preparation was untreated. Reactions were separated on BN-PAGE and visualized by coomassie G-250 stain. Arrows indicate HMW aggregate, a2M contaminant, trimer and monomer proteins. M stands for the 669 k thyroglobulin and 440 k ferritin molecular weight protein standards.
Tween® 20 Dose effect: 1 ug of purified 5768.4 SOSIP R6 trimer was incubated with varying concentrations of Tween® 20 ranging from 0.1 to 0.0001% (v/v) and incubated for 1 hour at room temperature. Following incubation, samples were analyzed by BN-PAGE as described above. Detergent effect on 5768.4 SOSIP R6 gp140 trimer preparations: 0.24 ug of purified 5768.4 SOSIP R6 trimer was incubated with Triton X-100, NP-40, or SDS to a final detergent concentration of 0.1% (v/v) or with Tween® 20 at concentrations of 0.05 and 0.1% for 1 hour at room temperature. Following incubation, 4× BN-PAGE MOPS sample buffer was added and the samples were immediately analyzed on BN-PAGE at 150 V for 2 hours at room temperature, followed by Coomassie G-250 staining.

A short description of data set [17]: Oligomeric stability of purified SOSIP gp140 trimers to detergents, BN-PAGE. Type of data set: physicochemical. As to conditions: 0.1% (v/v), 1 h, 25° C. The procedure:
Biophysical and antigenic characterization of purified trimers derived from KNH1144 SOSIP gp140. (A) Trimeric KNH1144 SOSIP gp140 was treated with 0.1% (v/v) ionic (SDS) and non-ionic (NP40, Nonidet-P40; Tw20 (Tween®-20); TX100 (Triton X-100) detergents for 1 h at 25° C. before BN-PAGE analysis. (B) Trimeric KNH1144 SOSIP gp140 was incubated with 0.5 μg/ml of the indicated MAbs or proteins, and then immunoprecipitated with protein G sepharose prior to analysis by SDS-PAGE.
The oligomeric stability of purified SOSIP gp140 trimers was determined essentially as previously described.^44 Briefly, 50 ng of protein was treated with 0.1% (v/v) SDS, Nonidet P-40, Tween®-20 or Triton X-100 for 1 h at room temperature, followed by analysis on BN-PAGE. The various oligomeric forms of Env resolved on the gel were detected by CA13 immunoblotting.
A purified Env trimer should meet several criteria to establish that it has been synthesized, folded, cleaved and otherwise post-translationally modified correctly. For example, it is important to establish that SOSIP gp140 trimers are oligomerized via non-covalent interactions between the gp41ECTO subunits, and not via aberrant inter-subunit disulfide bonds^40,66,67. For these assessments, purified KNH1144 SOSIP gp140 trimers were treated for 1 h at 25° C. with 0.1% (v/v) ionic (SDS) and non-ionic (NP-40, Tween®-20, Triton X-100) detergents and then analyzed by BN-PAGE. […] This is consistent with studies of JR-FL SOSIP gp140 trimers^44.

As for `COC[C@@H](c1ccc(C(F)(F)F)cc1)N1CCN(C2(C)CCN(C(=O)c3c(C)ncnc3C)CC2)C[C@@H]1C` [SCH-D], the IC50 amounted to 0.01 nM in [1] (Human immunodeficiency virus 1) and 0.1 nM in data set [2] (Human immunodeficiency virus 1).
In the case of `Cc1cn([C@H]2C[C@H](N=[N+]=[N-])[C@@H](CO)O2)c(=O)[nH]c1=O` [AZT], the IC50 in data set [1] worked out at 240 nM; in data set [2], 220 nM.
Take `CCO/N=C(\c1ccc(Br)cc1)C1CCN(C2(C)CCN(C(=O)c3c(C)cc[n+]([O-])c3C)CC2)CC1` [SCH-C]: the IC50 in data set [1] (Human immunodeficiency virus 1) turned out to be 0.04 nM; in [2] (Human immunodeficiency virus 1), 0.2 nM.
Regarding human monoclonal IgG 2F5 (antibody), the IC50, neutralization of Env-pseudotyped virus in data set [3] was over 3 µg/mL; in data set [4] it was over 3 µg/mL; in data set [5], 0.03 µg/mL; in [6], 0.01 µg/mL. Besides, the IC90, neutralization of Env-pseudotyped virus in data set [5] worked out at 0.99 µg/mL; in data set [6], 0.21 µg/mL.
“CD4-immunoglobulin G2 (CD4-IgG2) protein (from UniProt P01730 26-204) (Fc fusion)”: the EC50 stood at 0.046 µg/mL in data set [7]; 0.103 µg/mL in [8]; 0.068 µg/mL in [9]; 0.057 µg/mL in data set [10]; 0.083 µg/mL in [11]; 0.063 µg/mL in data set [12]. Moreover, the EC50 in data set [13] was 0.236 µg/mL; in data set [14] it was 0.09 µg/mL.
On to human monoclonal IgG 2G12 (antibody), for which the EC50 was 0.061 µg/mL in data set [7]; over 1 µg/mL in [8]; over 1 µg/mL in data set [15]; 0.478 µg/mL in [9]; 0.012 µg/mL in data set [10]; 0.54 µg/mL in data set [11]. For the same compound, the EC50 is over 1 µg/mL in data set [12], 0.064 µg/mL in [13] and over 1 µg/mL in data set [14].
Consider MAb CA13 (ARP 3119) (antibody), for which the EC50 in data set [7] is over 9 µg/mL; in data set [8], 0.636 µg/mL; in [15] it was 0.406 µg/mL; in [9] it was 0.337 µg/mL; in data set [10], 0.059 µg/mL; in data set [11] it was 0.094 µg/mL. In addition, the EC50 in [12] turned out to be 0.176 µg/mL; in [13], 1.57 µg/mL; in data set [14] it was 0.043 µg/mL.
Turning to “5768.4 SOSIP R6 gp140: subtype B 5768.4 envelope modified to the soluble SOSIP R6 gp140 trimer; SEQ ID NO:10”, in data set [16] (0.1%), the “effect of NP40 on HMW aggregate” value is on record as “collapse of HMW aggregate to trimer”; the “effect of SDS” value is on record as “breaking down the entire 5768.4 gp140 protein to resulting monomers”; the “effect of Triton X-100 on HMW aggregate” value is “capable of collapsing HMW aggregate to trimer, however, some breakdown to monomeric 5768.4 was observed”. Also, in data set [16] (0.1 and 0.05%), the “effect of Tween (Tween 20 and Tween 80) on HMW aggregate” value is recorded as “effectively collapsed HMW aggregate to trimers”.
For the compound “KNH1144 SOSIP gp140: soluble, disulfide-stabilized, I571P-modified cleaved trimeric gp140 of HIV-1 subtype A KNH1144”, in data set [17], the “adverse effects of NP-40 on trimers” value was “little”; the “adverse effects of Triton X-100 on trimers” value is given as “little”; the “adverse effects of Tween-20 on trimers” value is given as “no”; the “effect of SDS on trimers” value was “completely dissociate into dimers and monomers”.
Consider human monoclonal IgG b12 (antibody), for which the concentration for a half-maximal effect (EC50) in data set [7] was 0.027 µg/mL; in data set [8] it was 0.642 µg/mL; in data set [15] it was over 1 µg/mL; in data set [9], 0.092 µg/mL; in data set [10], 0.015 µg/mL; in [11], over 1 µg/mL. Also, the EC50 is 0.033 µg/mL in data set [12], over 1 µg/mL in data set [13] and 0.018 µg/mL in [14]. In addition, the IC90, neutralization of Env-pseudotyped virus in [3] is over 3 µg/mL; in data set [4], over 3 µg/mL; in data set [5] it was 1.9 µg/mL; in [6], 0.9 µg/mL. For the same compound, the values for the IC50, neutralization of Env-pseudotyped virus in data set [5] and in data set [6] were 1.14 µg/mL and 0.21 µg/mL, respectively.

In general, EC50 refers to the concentration giving half of the maximal effect. High values mean a less potent agent, low ones a more potent agent.
